Assay results: patent US20200102355A1

What was measured:
[1] = target: TST (BMC-T1 / HO-5812 with SpyTag inserted on the lumenal side, flanked by six residue glycine-serine linkers) (Haliangium ochraceum); experiment: calculated from fluorescence intensity of purified shells
[2] = target: TSC (BMC-T1 / HO-5812 with SpyCatcherΔN1ΔC2 inserted on the lumenal side, flanked by six residue glycine-serine linkers) (Haliangium ochraceum) (UniProt D0LHE3); experiment: as above
[3] = target: STprobe (SpyTag-mTurquoise2-TEV protease cleavage site-tetracysteine motif-6xHis permeability probe)

Chain of TST (BMC-T1 / HO-5812 with SpyTag inserted on the lumenal side, flanked by six residue glycine-serine linkers) (Haliangium ochraceum) (D0LHE3 whole entry): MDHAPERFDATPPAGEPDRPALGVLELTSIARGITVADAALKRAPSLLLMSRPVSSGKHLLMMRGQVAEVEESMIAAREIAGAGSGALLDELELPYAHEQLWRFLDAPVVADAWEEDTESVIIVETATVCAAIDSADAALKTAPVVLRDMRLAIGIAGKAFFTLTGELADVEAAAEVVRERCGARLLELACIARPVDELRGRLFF

Question: How did the copies of cfp cargo per shell (copies per shell) [1] turn out when SCcfp (6xHis-SpyCatcher-mTurquoise2) was run?
Answer: Its copies of cfp cargo per shell (copies per shell) is 58.

Question: Which copies of cfp cargo per shell (copies per shell) [2] does the source give for “STcfp (mTurquoise2 with N-terminal 13 residue SpyTag and C-terminal hexahistidine tag)” here?
Answer: The copies of cfp cargo per shell (copies per shell) was 73.

B1: tobacco etch virus protease (TEVp) (protein)
chain: GESLFKGPRDYNPISSTICHLTNESDGHTTSLYGIGFGPFIITNKHLFRRNNGTLLVQSLHGVFKVKNTTTLQQHLIDGRDMIIIRMPKDFPPFPQKLKFREPQREERICLVTTNFQTKSMSSMVSDTSCTFPSSDGIFWKHWIQTKDGQCGSPLVSTRDGFIVGIHSASNFTNTNNYFTSVPKNFMELLTNQEAQQWVSGWRLNADSVLWGGHKVFMSKPEEPFQPVKEATQLMN
Question: B1 was tested. Which “fluorescence emission shift (FRET of mTurquoise2 to FlAsH) reverted on TEVp addition, probe in uncapped shells” value [3] did it give?
Answer: The value was “Addition of the FlAsH reagent to the shells results in a fluorescence emission shift which is reverted upon TEVp addition”.
